One series has as its system Fos mRNA. Nature of the series: qPCR of Fos gene expression in pHGG cells. It counts as cell-based, human. The following applies: 50 nM NLGN3, 1 hour vs vehicle. The protocol:
(§1) A) Signaling through the PI3K pathway increases in response to NLGN3. Representative Western blot illustrating increased phosphorylation of AKT in response to various concentrations of NLGN3 ranging from 0-50 nM. p-AKT is shown in top panel; total AKT is shown in the bottom panel. B) Quantification of the increased fold change of pAKT/AKT ratio in response to NLGN3 at various doses (oneway ANOVA, F=17.99, P<001; data shown as mean±SEM; *P<0.05, **P<0.01, ***P<0.001 by Tukey's post-hoc tests to further examine pairwise comparisons). Fold change is normalized to blank media (aCSF). (C) Fos mRNA expression increases after 1 hour exposure to […] 50 nM NLGN3 (data shown as mean±SEM; **P<0.01 by unpaired two-tailed Student's t-test). D) NLGN3 mRNA expression increases after 12 hour exposure to 50 nM NLGN3 vs. vehicle in SU-[…] cells. […]
After various cell treatments (described in extended experimental procedures), RNA was extracted from 500,000 SU-pcGBM2 or SU-[…] cells using TRIzol reagent. cDNA was generated using RT-PCR, and gene expression changes were further probed using quantitative PCR.
500,000 SU-pcGBM2 cells were exposed to either aCSF, 50 nM NLGN3 (Origene Technologies, Rockville), 500 nM BKM120 (SelleckChem, Houston, Tex.), 50 nM EGF (Shenandoah, Warwick, R.I.), or a combination of the above treatments. […] Differential expression was determined using the delta CT method. […]
A general note: Real-time PCR tracks product formation cycle by cycle.

The subject of series [1] is SU-pcGBM2 cells. Nature of the series: EdU incorporation assay, proliferation index of pHGG cells (SU-pcGBM2). It is filed as cell-based, human.
Series [2] relates to MAPK pathway (phospho-ERK1/2 T202/Y204). Nature of the series: Western blot of phospho-ERK1/2 as indicator of MAPK pathway activation. It is filed as cell-based, human. The note with it: NLGN3 50 nM vs aCSF. As to the method: A) Western blot analysis of phosphorylated ERK1/2 (Thr202/Tyr204) and total ERK1/2 in SU-pcBGM2 cells after exposure to either aCSF or NLGN3 (50 nM). […] B) Phosphorylated ERK1/2 levels were normalized to total ERK1/2 levels. […] All experiments performed in three biological replicates and analyzed by unpaired two-way Student's t-test. Data presented as mean±SEM. **P<0.01, ***P<0.001. n.s. indicates P>0.05.
Endogenous protein levels were determined using Western blot analysis. Briefly, after various treatments, 400,000 SU-pcGBM2 cells were lysed and loaded onto SDS-PAGE gels. Proteins were separated with gel electrophoresis and transferred to a PVDF membrane. Proteins were then probed for various antibodies as described in extended experimental procedures.
In general terms: In western blotting, separated proteins are transferred to a membrane and probed.

In series [3] the test system is PI3K pathway (phospho-AKT). The experiment in a line: Western blot of phospho-AKT as indicator of PI3K pathway activity. It counts as cell-based, human. The note with it: recombinant NLGN3 0-50 nM, 1 hour. As to the method:
as §1, with “cells. Data shown as mean±SEM; *P<0.05 by unpaired two-tailed Student's t-test.” for “cells.”
Endogenous protein levels were determined using Western blot analysis. […]
Briefly, in FIG. 5, panel A, cells were lysed after 1-hour exposure to 0 nM, 5 nM, 10 nM, or 50 nM recombinant NLGN3 (Origene Technologies, Rockville, Md.), using RIPA buffer and protease inhibitors. […] Protein concentration in the lysate was determined using a Bradford assay. […] Proteins were visualized using Clarity ECL Western Substrate (BioRad, Hercules, Calif.) and quantified using ImageJ.

Series [4] has as its system SU-pcGBM2 cells. The experiment in a line: Annexin V FACS analysis of cell death. It is filed as cell-based. The following applies: 50 nM NLGN3, 24 h vs PBS. The protocol:
After 24-hr exposure to PBS or NLGN3 (50 nM), SU-pcGBM2 cells were stained with DAPI (X-axis) and Annexin V-FITC (Y-axis) to detect cell death by FACS analysis, performed in biological duplicate. Live Annexin V^−/DAPI^− cells shown in lower left quadrant of contour plots; pre-apoptotic Annexin V^+/DAPI^− cells, left upper quadrant; dead Annexin V^+/DAPI^+ cells, right upper quadrant.
SU-pcGBM2 cells were cultured in minimal growth media together with 50 nM NLGN-3 recombinant protein (dissolved in PBS) or PBS only as a vehicle control in duplicate for 24 hrs. Cells were harvested for FACS analyses of apoptosis using Annexin V-FITC Apoptosis Detection Kit II (556570, BD Biosciences) according to the manufacturer's instruction with slight modifications. DAPI was used in combination with Annexin V-FITC to stain the apoptotic cell population instead of PI. The stained cells were analyzed using a BD Fortessa FACS machine (BD Biosciences). The data were analyzed using Flowjo software (FLOWJO, LLC).

Series [5] concerns NLGN3 mRNA in SU-pcGBM2 cells. Nature of the series: qPCR of NLGN3 gene expression in SU-pcGBM2 cells. It counts as cell-based, human. The following applies: 50 nM recombinant NLGN3, 12 hour vs vehicle.

From patent US10377818B2, “Method of treating glioma” (The Board of Trustees of the Leland Stanford Junior …, priority 2015, dated 2019) come the findings set out here.

B1: NLGN3: Recombinant full-length neuroligin-3 (Origene), tested as glioma mitogen (protein, listed as Mus musculus)
chain: MWLQPSLSLSPTPTVGRSLCLTLGFLSLVLRASTQAPAPTVNTHFGKLRGARVPLPSEILGPVDQYLGVPYAAPPIGEKRFLPPEPPPSWSGIRNATHFPPVCPQNIHTAVPEVMLPVWFTANLDIVATYIQEPNEDCLYLNVYVPTEDGSGAKKQGEDLADNDGDEDEDIRDSGAKPVMVYIHGGSYMEGTGNMIDGSVLASYGNVIVITLNYRVGVLGFLSTGDQAAKGNYGLLDQIQALRWVSENIAFFGGDPRRITVFGSGIGASCVSLLTLSHHSEGLFQRAIIQSGSALSSWAVNYQPVKYTSLLADKVGCNVLDTVDMVDCLRQKSAKELVEQDIQPARYHVAFGPVIDGDVIPDDPEILMEQGEFLNYDIMLGVNQGEGLKFVEGVVDPEDGVSGTDFDYSVSNFVDNLYGYPEGKDTLRETIKFMYTDWADRDNPETRRKTLVALFTDHQWVEPSVVTADLHARYGSPTYFYAFYHHCQSLMKPAWSDAAHGDEVPYVFGVPMVGPTDLFPCNFSKNDVMLSAVVMTYWTNFAKTGDPNKPVPQDTKFIHTKANRFEEVAWSKYNPRDQLYLHIGLKPRVRDHYRATKVAFWKHLVPHLYNLHDMFHYTSTTTKVPPPDTTHSSHITRRPNGKTWSTKRPAISPAYSNENAPGSWNGDQDAGPLLVENPRDYSTELSVTIAVGASLLFLNVLAFAALYYRKDKRRQEPLRQPSPQRGTGAPELGTAPEEELAALQLGPTHHECEAGPPHDTLRLTALPDYTLTLRRSPDDIPLMTPNTITMIPNSLVGLQTLHPYNTFAAGFNSTGLPHSHSTTRV
On to B1, for which the Fos gene expression result with Fos mRNA is recorded as “upregulation of Fos gene expression”. The same molecule displayed a proliferation index in the series on SU-pcGBM2 cells [1] (pHGG cells exposed to 50 nM NLGN3, 24 h, EdU) of 0.40±0.01. For the same molecule, the “effect on proliferation index, dose curve” value with SU-pcGBM2 cells [1] (recombinant NLGN3 0-100 nM, 24 hours) is “promotes proliferation, matching the mitogenic effect of active CM at low nanomolar concentrations”. For the same molecule, the “effect on proliferation index relative to aCSF control” value with SU-pcGBM2 cells [1] (recombinant candidate proteins at 100 nM for 24 hours) is “promote glioma cell proliferation”. For the same molecule, the “phospho-ERK1/2 T202/Y204” value in series [2] is on record as “did not reveal upregulation”. Further, the “phospho-AKT levels relative to total AKT” value in series [3] is recorded as “increased phospho-AKT levels relative to total AKT in a dose-dependent manner”. Besides, the “cell death by Annexin V FACS analysis” value in the series with SU-pcGBM2 cells [4] is “no change in cell death”. Further, the NLGN3 gene expression entry in series [5] is recorded as “increase in glioma cell NLGN3 gene expression”.
